Results published in paper PMC11739670 (2024).

Legend:
[1] = biological target: HLA-A*01:01 peptide-MHC class I (biotinylated pMHCI) (human | , biotin on the Avi-tag (BirA ligase)); assay: SPR; average over HLA-A1 peptides, 25°C
[2] = biological target: HLA-A*03:01 peptide-MHC class I (biotinylated pMHCI) (human | , biotin on the Avi-tag (BirA ligase)); assay: SPR; average over HLA-A3 peptides, 25°C
[3] = biological target: HLA-A*24:02 peptide-MHC class I (biotinylated pMHCI) (human | , biotin on the Avi-tag (BirA ligase)); assay: SPR; average over HLA-A24 peptides, 25°C

B1: soluble human CD8αβ-Fc heterodimer (Fc fusion)
chain 1: not shown
chain 2: LQQTPAYIKVQTNKMVMLSCEAKISLSNMRIYWLRQRQAPSSDSHHEFLALWDSAKGTIHGEEVEQEKIAVFRDASRFILNLTSVKPEDSGIYFCMIVGSPELTFGKGTQLSVVDFLPTTAQPTKKSTLKKRVCRLPRPETQKGPLCSP
- Kd [1]: 120 µM
- Kd [2]: 133 µM
- Kd [3]: 214 µM
